Results on two molecules are retold here after patent US20170137467A1 (CHROMOTEK, published 2017).

Assay in all cases: positional peptide library pulldown on immobilised Nb, LC-MS of supernatant; signal ratio to control GFP-Nb (1 = not captured, near 0 = captured)
In assay [1] the target is T1, BC2T A6F.
T1 construct: positional scanning library member
T1 peptide: Ac-PDRKAFVSHWQQ-NH2
The essentials: (§1)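 Unbound peptide left in supernatant after 1 h pulldown in PBS/0.01% CHAPS measured by reversed-phase LC-MS (8–30% eluent B gradient, 20 min).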

The target of assay [2] is T2, BC2T P1W.
T2 construct: positional scanning library member
T2 peptide: Ac-WDRKAAVSHWQQ-NH2
A digest of the protocol: as §1

Assay [3] addresses T3, BC2T A5W.
T3 construct: positional scanning library member
T3 peptide: Ac-PDRKWAVSHWQQ-NH2
A digest of the protocol:
as §1

Assay [4] deals with T4, BC2T A6W.
T4 construct: positional scanning library member
T4 peptide: Ac-PDRKAWVSHWQQ-NH2
The essentials: as §1

Assay [5] concerns the target T5, BC2T D2S.
T5 construct: positional scanning library member
T5 peptide: Ac-PSRKAAVSHWQQ-NH2
A digest of the protocol: as §1

In assay [6] the target is T6, BC2T K4T.
T6 construct: positional scanning library member
T6 peptide: Ac-PDRTAAVSHWQQ-NH2
The essentials: as §1

Assay [7] concerns the target T7, BC2T D2N.
T7 construct: positional scanning library member
T7 peptide: Ac-PNRKAAVSHWQQ-NH2
The essentials: as §1

Assay [8] deals with T8, BC2T A5Q.
T8 construct: positional scanning library member
T8 peptide: Ac-PDRKQAVSHWQQ-NH2
The essentials:
as §1

Assay [9] has as its target T9, BC2T A6Q.
T9 construct: positional scanning library member
T9 peptide: Ac-PDRKAQVSHWQQ-NH2
The essentials:
as §1

The target of assay [10] is T10, BC2T R3Y.
T10 construct: positional scanning library member
T10 peptide: Ac-PDYKAAVSHWQQ-NH2
The essentials: as §1

Assay [11] has as its target T11, BC2T K4Y.
T11 construct: positional scanning library member
T11 peptide: Ac-PDRYAAVSHWQQ-NH2
A digest of the protocol: as §1

Assay [12] deals with T12, BC2T V7Y.
T12 construct: positional scanning library member
T12 peptide: Ac-PDRKAAYSHWQQ-NH2
The essentials: as §1

In assay [13] the target is T13, BC2T R3K.
T13 construct: positional scanning library member
T13 peptide: Ac-PDKKAAVSHWQQ-NH2
The essentials: as §1

The target in assay [14] is T14, BC2T A6K.
T14 construct: positional scanning library member
T14 peptide: Ac-PDRKAKVSHWQQ-NH2
A digest of the protocol: as §1

Assay [15] concerns the target T15, BC2T A6R.
T15 construct: positional scanning library member
T15 peptide: Ac-PDRKARVSHWQQ-NH2
A digest of the protocol: as §1

In assay [16] the target is T16, BC2T A6H.
T16 construct: positional scanning library member
T16 peptide: Ac-PDRKAHVSHWQQ-NH2
The essentials: as §1

Assay [17] concerns the target T17, BC2T V7H.
T17 construct: positional scanning library member
T17 peptide: Ac-PDRKAAHSHWQQ-NH2
A digest of the protocol:
as §1

The target in assay [18] is T18, BC2T R3D.
T18 construct: positional scanning library member
T18 peptide: Ac-PDDKAAVSHWQQ-NH2
A digest of the protocol:
as §1

Assay [19] has as its target T19, BC2T P1E.
T19 construct: positional scanning library member
T19 peptide: Ac-EDRKAAVSHWQQ-NH2
The essentials: as §1

Assay [20] concerns the target T20, BC2T W10D.
T20 construct: positional scanning library member
T20 peptide: Ac-PDRKAAVSHDQQ-NH2
A digest of the protocol: as §1

Assay [21] has as its target T21, BC2T S8E.
T21 construct: positional scanning library member
T21 peptide: Ac-PDRKAAVEHWQQ-NH2
A digest of the protocol:
as §1

The target in assay [22] is T22, BC2T W10E.
T22 construct: positional scanning library member
T22 peptide: Ac-PDRKAAVSHEQQ-NH2
The essentials: as §1

Numbering of substitutions follows the chain as printed.

B1: BC2-NbR106E (VHH)
VHH: QVQLVESGGGLVQPGGSLTLSCTASGFTLDHYDIGWFRQAPGKEREGVSCINNSDDDTYYADSVKGRFTIFMDNAKDTVYLQMNSLKPEDTAIYYCAEARGCKRGEYEYDFWGQGTQVTVSS
notes: headlock mutant of BC2-Nb; immobilised on beads in this assay
As to B1, the ratio was found to be 1 in assay [1]; 0.2 in assay [2]; 0 in assay [3]; 1 in [4]; 0.2 in [5]; 0.5 in assay [6]. Besides, the ratio in assay [7] was found to be 0.2; in assay [8], 0.2; in assay [9], 1; in assay [10] it was 0.9; in assay [11], 0.3; in assay [12], 0.2. The ratio in [13] came to 0.3; in assay [14], 0.9; in [15], 0.7; in assay [16], 1; in assay [17] it was 0.3; in assay [18], 1. Also, the ratio in assay [19] amounted to 0.8.

B2: BC2 nanobody (VHH)
VHH: B1 VHH with E106R
notes: immobilised on beads in this assay; also called BC2-Nb; BC2 nanotrap (immobilised)
As to B2, the ratio in assay [20] was determined as 1; in assay [21], 0.7; in assay [22] it was 1.1.
